Experimental findings from patent US20220204581A1, “MONOMERIC PEPTIDE MULTI-AGONIST […] THE GLP1 RECEPTOR AND NPY RECEPTORS” (SYRACUSE UNIVERSITY, published 2022) are described below.

Where two headings read alike, the source gives them in different places. Where no end group is shown, it is not given here. The star is where a group is joined. azido = [N-]=[N+]=N* Where only a bound is given, the exact number is not on record here.

The target in assay [1] is T1, human NPY1-R (human, UniProt P25929).
Assay [2] deals with T1, human NPY1-R. The source holds these as a separate data set.
The target of assay [3] is T1, human NPY1-R. As to the kind of experiment: cell-based or functional assay.
Assay [4] has as its target T2, human GLP-1R (human, UniProt P43220). As to the kind of experiment: cell-based or functional assay.
For a further assay, the target named is T3, human NPY2-R (human, UniProt P49146).
T3 sequence: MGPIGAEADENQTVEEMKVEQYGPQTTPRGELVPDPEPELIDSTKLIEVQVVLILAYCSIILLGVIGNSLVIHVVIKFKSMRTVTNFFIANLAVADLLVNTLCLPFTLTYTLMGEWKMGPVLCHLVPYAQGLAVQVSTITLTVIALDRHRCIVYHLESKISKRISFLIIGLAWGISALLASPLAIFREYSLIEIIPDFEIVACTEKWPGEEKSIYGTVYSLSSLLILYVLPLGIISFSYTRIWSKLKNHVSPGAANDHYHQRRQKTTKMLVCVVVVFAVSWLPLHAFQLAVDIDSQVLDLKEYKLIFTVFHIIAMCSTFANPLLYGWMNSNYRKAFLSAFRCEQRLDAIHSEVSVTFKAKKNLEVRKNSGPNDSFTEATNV
In words: cell-based or functional assay.

The target of assay [5] is T2, human GLP-1R. In words: cell-based or functional assay. The source holds these as a separate data set.
The target in assay [6] is T1, human NPY1-R. In words: cell-based or functional assay. This is another data set of the same source.

With PYY1-36 (ligand), the EC50 Y1R with human NPY1-R [1] was found to be 12 nM. For the same molecule, in the assay with human NPY1-R [2], the EC50 (agonism of the Y1-R) came out at 42 nM.
As to HSQGTFTSDLSK(azido)QINEEEAVRLFIEWLKNGGPSRHYLNLVTRQRY-NH2 [EP44], in the assay with human NPY1-R [3], the “EC50 Y1R” value is above 100 nM.
Consider HGEGTFTSDLSKQMEEEAVRLFIEWLKNGGPSSTRQRY (C-terminal amidation; K12-azido modification) [EP38], for which the “EC50 GLP1R” value in the assay with human GLP-1R [4] amounted to 0.08 nM. For the same molecule, the “EC50 Y2R” value with human NPY2-R is above 300 nM.
HSQGTFTSDLSK(azido)YLEEEAVREFIAWLKNGGPSRHYLNLVTRQRY-NH2 [GEP44]: the EC50 (commonly the midpoint of the concentration-response curve) with human GLP-1R [5] was 300000 nM. In the assay with human NPY1-R [6], the “EC50 (agonism of the Y1-R)” value was 83 nM. For the same molecule, the “EC50 GLP1R” value with human GLP-1R [4] turned out to be 0.33 nM. Further, the “EC50 Y2R” value in the assay with human NPY2-R was determined as 10 nM. Moreover, the “EC50 Y1R” value in the assay with human NPY1-R [3] came to 24 nM.
